According to article PMC4084637:

Experiments:
[1] = target: antibody PGT128 (human); experiment: SPR
[2] = target: antibody PGT135 (human); experiment: SPR
antibody PGT135 (human), sequence (heavy, as listed by the source, chain 1 of 2): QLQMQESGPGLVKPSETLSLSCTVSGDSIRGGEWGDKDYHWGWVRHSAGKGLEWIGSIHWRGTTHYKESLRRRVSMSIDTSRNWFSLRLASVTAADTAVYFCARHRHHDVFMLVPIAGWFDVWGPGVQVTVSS
antibody PGT135 (human), sequence (light, as listed by the source, chain 2 of 2): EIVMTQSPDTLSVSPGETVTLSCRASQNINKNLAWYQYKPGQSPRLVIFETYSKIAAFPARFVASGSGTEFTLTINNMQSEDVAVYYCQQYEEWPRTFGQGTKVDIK

antibody PGT128 (human), sequence (heavy, as listed by the source, chain 1 of 2): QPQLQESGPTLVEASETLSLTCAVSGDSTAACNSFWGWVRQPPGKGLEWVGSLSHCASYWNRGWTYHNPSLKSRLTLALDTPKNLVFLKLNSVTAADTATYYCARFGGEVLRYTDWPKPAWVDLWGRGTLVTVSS
antibody PGT128 (human), sequence (light, as listed by the source, chain 2 of 2): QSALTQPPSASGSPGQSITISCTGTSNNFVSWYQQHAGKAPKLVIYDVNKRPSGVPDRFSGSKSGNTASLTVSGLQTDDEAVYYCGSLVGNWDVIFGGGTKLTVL

“YU2 gp120 (from UniProt P35961 32-498) (natural protein)” was tested, and the Kd [1] was 11 nM and the Kd [2] was 18 nM.
